Assay results from US8912148B2, “Methods of treating a disease or condition associated with abnormal angiogenesis” (Covx Technology Ireland, Ltd., priority 2006, dated 2014).
pIC50: −log10 of the molar value. Starred links: 1 amine or outer side, 2 acyl side, 3 side chain; linkers in the order of their positions; H or OH if unused. Non-standard residues stand in square brackets, D forms with d. No end group written: not given here. Phe(4-COOH) = N[C@@H](Cc1ccc(C(=O)O)cc1)C(=O)O; AcK = CC(=O)NCCCC[C@H](N[*:1])C(=O)[*:2]; 0P = not defined here

Legend:
[1] = target: T1, human angiopoietin-2 protein (Homo sapiens, UniProt O15123); assay: Competitive ELISA: inhibition of Ang-2-Tie-2 binding, plates coated with Ang-2 (Table 7)
T1 construct: purchased R&D Systems
T1 sequence (O15123 19-496): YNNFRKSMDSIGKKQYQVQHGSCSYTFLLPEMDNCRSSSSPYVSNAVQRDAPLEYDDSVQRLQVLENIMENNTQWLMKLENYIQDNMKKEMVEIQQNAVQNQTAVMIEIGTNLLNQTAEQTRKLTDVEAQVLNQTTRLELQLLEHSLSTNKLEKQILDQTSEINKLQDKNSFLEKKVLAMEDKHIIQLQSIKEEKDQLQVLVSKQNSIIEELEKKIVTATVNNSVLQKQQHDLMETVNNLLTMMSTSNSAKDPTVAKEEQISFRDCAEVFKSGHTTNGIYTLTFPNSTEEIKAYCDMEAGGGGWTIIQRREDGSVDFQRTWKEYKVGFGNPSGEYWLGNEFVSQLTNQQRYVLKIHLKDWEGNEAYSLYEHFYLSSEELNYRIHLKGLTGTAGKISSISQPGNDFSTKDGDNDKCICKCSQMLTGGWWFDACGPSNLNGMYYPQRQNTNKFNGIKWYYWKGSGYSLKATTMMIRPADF
Experimental: The ability of Ang-2 binding compounds to interact with Ang-2 was measured by competition with Tie-2.
For competitive ELISA, human angiopoietin-2 protein and Tie-2-Fc (R&D Systems) were reconstituted without carrier protein. Mouse anti-human Tie-2 (Pharmingen) was used as the primary antibody and goat anti-mouse-IgG1-HRP (Pierce) was used as the secondary antibody. TMB substrate from Pierce was used.
High-binding half-well plates were coated with Ang-2 (100 ng/well) in 50 μl PBS and incubated at 4° C. overnight. Plates were washed three times with washing buffer (0.1% Tween 20, PBS, pH 7.4) and blocked with Superblock (Scytek), 100 μl/well at room temperature (“RT”) for 1 hour. After removing the blocking solution, 50 μl of an Ang-2 binding peptide compound (1 uM and 5× serial dilution) in the presence of 0.25 nM hTie-2-Fc using Superblock as diluent was added and incubated at RT for 2 hours. Plates were washed 3 times with washing buffer. Then, 50 ul of 0.1 ug/ml mouse anti-human Tie-2 diluted in Superblock added and incubated at RT for 1 hour. Following incubation, 50 ul of 1:5,000 dilution of goat anti-mouse IgG-HRP in Superblock was then added and incubated at RT for one hour. After washing 3 times, 50 μl (25 μl TMB+25 μl H2O2) was added, and incubated for 3-5 minutes. Color development was monitored and stopped with 25 μl of 2 M H2SO4. OD450 nm with a correction wavelength of 540 nm was measured.
In Table 7, compounds of SEQ ID NOs: 21-23 are Ang-2 binding peptides alone, not conjugated to either a linker or linker-antibody; compounds of SEQ ID NOs:65 and 66 are Ang-2 binding peptides conjugated to a linker-antibody, where the linker is 4P (“4” PEG) and has the structure of the linker shown in FIG. 2; and compounds 26-63 are Ang-2 binding peptides conjugated to a linker-antibody, where the linker is OP (“O” PEG) and has the structure of the linker shown in FIG. 3. Compounds 24-63 were conjugated to humanized aldolase antibody h38c2 and the linker structures shown in FIG. 2 (4P) and FIG. 3 (OP) when obtainng the data shown below, except where otherwise indicated.
In Table 7, amino acid sequences of peptide compounds are shown with the position of linker OP or 4P indicated in parentheses following the internal amino acid residue to which the linker is attached. For compound of SEQ ID NO:67, the N-terminal “OP” linker is indicated at the beginning of the peptide sequence.

Recombinant human Ang-2 = target: T2, Recombinant human Ang-2 (Homo sapiens, UniProt O15123); assay: Truncation study: competition with compound 43 linked to linker and h38c2 for binding to coated Ang-2 (Table 9); conditions: competition with compound 43-linker-h38c2 at 10 ng/mL, read-out: Ang-2 T IC50
T2 sequence (O15123 19-496): T1 sequence (O15123 19-496)
Experimental: Recombinant human Ang-2 was coated on microtiter plates at 0.5 μg/mL in 100 μL, overnight at 2-8° C. Plates were washed between all steps and all subsequent incubations occurred at room temperature. Plates were blocked with 250 μL per well of SuperBlock for 1-3 hours. Test compounds were pre-mixed with compound 43 linked to linker (as shown in FIG. 3) and h38c2 at 10 ng/mL. Peptide mixtures in 100 μL were then added at the listed final concentrations, the plates sealed, and incubated for 1-2 hours. Bound compound 43 was detected with 100 μL of a 1:20,000 dilution of HRP-labeled anti-human IgG reagent for 1-2 hours. Finally, 100 μL TMB substrate was added for 10 minutes and the reaction stopped with 100 μL of 2 NH2SO4 stop solution.

Co10205 cells = assay: Xenograft studies: subcutaneous tumor growth in nude mice, % T/C (Table 10); format: in vivo
Experimental: Co10205 cells were cultured with 10% FBS RPMI medium and 3×10^6 cells in 0.1 ml Hank's balanced salt solution (HBSS) were injected subcutaneously into the upper right flank of nude mice. After 7-9 days, animals were randomized into appropriate number of groups with average tumor size of 200-300 mm^3. Mice were then treated with the requisite amount of compounds of the invention and tumor volumes were measured twice a week. Animals were terminated once their average tumor volume reached 2000 mm^3. Upon termination, tumors were weighed and saved for further histological studies. Treatment efficacy was evaluated by measuring the difference in the tumor volumes of treated versus control groups. Results are reported as % T/C, where % T/C was calculated as: % T/C=(Vt−V0)/(Ct−C0)×100, where, V0 and Vt were the average tumor volumes of treated groups at the beginning and termination of the group. CO and Ct were the average tumor volumes of the control group at the beginning and termination of the group (Table 10).

[2] = target: T1, human angiopoietin-2 protein; assay: Reverse competition ELISA: inhibition of Ang-2-Tie-2 binding, plates coated with Tie-2-Fc (Table 8); conditions: reverse competitive ELISA; peptide linked to antibody h38c2 via 0P linker
Experimental: For reverse competition ELISA, human Tie-2-Fc, angiopoietin-2 protein, biotinylated anti-human Ang-2 antibody, and streptavidin HRP(R&D Systems) and TMB substrate from Pierce were used.
High-binding half-well plates were coated with Tie-2-Fc (50 ng/well) in 50 μl PBS and incubated at 4° C. overnight. Plates were washed three times with washing buffer (0.1% Tween 20, PBS, pH 7.4) and blocked with Superblock, 150 μl/well at RT for 1 hour. Plates were washed three times. Following washing, 50 μl of an Ang-2 binding peptide compound (50 nM, 5× serial dilution) in the presence of 50 ng/ml (0.83 nM) Ang-2 in Superblock were added and incubated at RT for 1 hour. Plates were washed 3 times, 50 μl of 1 μg/mlbiotinylated anti-Ang-2 detection antibody in Superblock was added and incubated at RT for 2 hours. Plates were washed 3 times, and 50 μl of streptavidin HRP (1:200 dilution in Superblock) was added at RT for 20 minutes. Plates were washed 3 times, and 50 μl (25 μl TMB+25 μl H2O2) substrate solution was added and incubated for 20-30 minutes. Color development was stopped with 25 μl of 2 M H2SO4. OD450 nm with a correction wavelength of 540 nm was measured.
IC50 values are provided for the targeting peptide plus linker (as shown in FIG. 3) and the targeting peptide linked to an antibody (P) via the linker of FIG. 3, unless otherwise specified.

[3] = P = targeting peptide linked to antibody h38c2 via the linker, read-out: Ang-2 P IC50
[4] = T = targeting peptide plus linker (compounds 21-23: peptide alone), read-out: Ang-2 T IC50

Substance	pIC50 [1, 3]	other results
31 (Q[AcK]YQPLDELDETK(0P)YDQFMLQQG; reading uncertain; also: printed as Q(AcK)Y QPL DEL DET K(0P)YD QFM LQQ G) [Compound 31]	< 6.00	pIC50 [1, 4]: < 5.30
33 (Q[AcK]YQPLDEK(0P)DETLYDQFMLQQG; reading uncertain) [Compound 33]	7.05	–
36 (QXYQPLDELDXTIYDQFMLQQG; AcK; K(0P) modified lysine; Anti-angiogenic peptide) [Compound 36]	6.82	–
37 (QXYQPLDEIDXTLYDQFMLQQG; AcK; K(0P) modified lysine; Anti-angiogenic peptide) [Compound 37]	7.10	–
38 (QXYQPLDELDXTXYDQFMLQQG; not fully specified; AcK; K(0P); homocyclohexylalanine; Anti-angiogenic peptide) [Compound 38]	6.15	pIC50 [1, 4]: < 5.30
39 (QXYQPLDELDXTXYDQFMLQQG; AcK; K(0P); homophenylalanine; Anti-angiogenic peptide) [Compound 39]	6.59	–
40 (QXYQPLDELDXTXYDQFMLQQG; AcK; K(0P); thienylalanine; Anti-angiogenic peptide) [Compound 40]	6.45	pIC50 [1, 4]: < 5.30
87 (Ac-[AcK]YQPLDE[AcK]DK(0P)TLYDQFMLQQG-NH2; reading uncertain; also: 0P linker on K10, reactive end group for antibody) [Compound 87]	–	pIC50 (Recombinant human Ang-2): < 5.40
88 (Ac-YQPLDE[AcK]DK(0P)TLYDQFMLQQG-NH2; reading uncertain; also: 0P linker on K9, reactive end group for antibody) [Compound 88]	–	pIC50 (Recombinant human Ang-2): < 5.40
89 (Ac-QPLDE[AcK]DK(0P)TLYDQFMLQQG-NH2; reading uncertain; also: 0P linker on K8, reactive end group for antibody) [Compound 89]	–	pIC50 (Recombinant human Ang-2): < 5.40
90 (Ac-PLDEK(Ac)DK(0P)TLYDQFMLQQG-NH2; reading uncertain; also: 0P linker on K7, reactive end group for antibody) [Compound 90]	–	pIC50 (Recombinant human Ang-2): < 5.40

Further substances by rising pIC50 [1, 3], results first:

pIC50 [1, 3]	Substance	other results
7.38	62 (Q[AcK]YQPLDE[AcK]DK(0P)TL[Phe(4-COOH)]DQFMLQQG; not fully specified (C-terminus); reading uncertain; also: 0P linker on K11, antibody h38c2 conjugate or reactive form) [Compound 62]	–
7.39	25: "compounds of SEQ ID NOs:65 and 66 are Ang-2 binding peptides conjugated to a linker-antibody, where the linker is 4P (“4” PEG)" (QNYQPLDELDXTLYDQFMLQQG; 4P PEG linker conjugated to antibody; Anti-angiogenic peptide) [Compound 25]	–
7.54	R^1-QNY QPL DEL DKT LYD QFM LQQ G-R^2 (QNYQPLDELDKTLYDQFMLQQG; also: variable termini R1, R2) [Compound 28]	pIC50 [1, 4]: 6.76; % TC 3 mg/kg 1×/wk (Co10205 cells; 3 mg/kg 1×/wk): 34%; % TC 10 mg/kg 1×/wk (Co10205 cells; 10 mg/kg 1×/wk): 38%; pIC50 [2]: 9.82
7.74	(Amido 2-PEG)QAcKY QPL DEL DK(OP)T LYD QFMLQQ G (QXYQPLDELDXTLYDQFMLQQG; amido-2-PEG cap; acetyl-lysine; OP linker at K11; Anti-angiogenic peptide) [Compound 52]	–
7.76	QAcKY QPL DEL DK(4P)T LYD QFM LQQ G (QXYQPLDELDXTLYDQFMLQQG; not fully specified; acetyl-lysine; 4P PEG linker to antibody at K11; Anti-angiogenic peptide) [Compound 24, "the second amino acid residue is epsilon acyl lysine ... the linking position (in this case a 4P linker) is the lysine residue 11"]	–
7.78	35 (QXYQXLDELDXTLYDQFMLQQG; AcK; hydroxyproline; K(0P); Anti-angiogenic peptide) [Compound 35]	–
7.79	59 (QRYQPLDELDXTLYDQFMLQQG; K(0P) modified lysine; Anti-angiogenic peptide) [Compound 59]	–
7.84	60 (QHYQPLDELDXTLYDQFMLQQG; not fully specified; K(0P) modified lysine; Anti-angiogenic peptide) [Compound 60]	–
